Assays:
Assay in all cases: cryo-EM structure
[1] = molecular target: T1, PRIM2 (human, UniProt P49643-1 1-509)
T1 sequence (looked up): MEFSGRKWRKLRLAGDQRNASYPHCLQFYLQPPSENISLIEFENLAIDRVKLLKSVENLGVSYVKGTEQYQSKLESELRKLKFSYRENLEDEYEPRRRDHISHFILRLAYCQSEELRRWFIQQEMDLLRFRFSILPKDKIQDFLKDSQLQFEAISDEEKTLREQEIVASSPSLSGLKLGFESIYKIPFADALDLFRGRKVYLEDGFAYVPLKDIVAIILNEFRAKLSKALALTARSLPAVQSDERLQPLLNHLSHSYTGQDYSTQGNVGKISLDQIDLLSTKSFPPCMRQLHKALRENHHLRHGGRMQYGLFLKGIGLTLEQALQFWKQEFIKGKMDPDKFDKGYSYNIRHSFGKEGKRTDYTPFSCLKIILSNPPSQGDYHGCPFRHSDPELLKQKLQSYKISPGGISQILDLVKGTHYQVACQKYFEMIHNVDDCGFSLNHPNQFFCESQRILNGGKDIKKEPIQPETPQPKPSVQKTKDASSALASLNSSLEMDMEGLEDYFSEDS

[2] = molecular target: T2, STN1 (human, UniProt Q9H668 2-368)
T2 sequence: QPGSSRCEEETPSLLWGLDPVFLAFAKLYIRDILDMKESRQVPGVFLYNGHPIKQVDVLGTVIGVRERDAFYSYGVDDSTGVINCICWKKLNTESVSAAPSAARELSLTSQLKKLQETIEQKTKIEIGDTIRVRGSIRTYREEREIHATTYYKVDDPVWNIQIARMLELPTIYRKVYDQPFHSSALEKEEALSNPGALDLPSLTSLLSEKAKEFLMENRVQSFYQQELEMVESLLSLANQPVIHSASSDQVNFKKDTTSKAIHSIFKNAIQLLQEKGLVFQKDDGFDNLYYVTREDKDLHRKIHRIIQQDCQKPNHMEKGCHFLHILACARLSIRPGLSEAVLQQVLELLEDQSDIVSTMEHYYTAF

[3] = molecular target: T3, POLA2 (human, UniProt Q14181-1 1-598)
T3 sequence (looked up): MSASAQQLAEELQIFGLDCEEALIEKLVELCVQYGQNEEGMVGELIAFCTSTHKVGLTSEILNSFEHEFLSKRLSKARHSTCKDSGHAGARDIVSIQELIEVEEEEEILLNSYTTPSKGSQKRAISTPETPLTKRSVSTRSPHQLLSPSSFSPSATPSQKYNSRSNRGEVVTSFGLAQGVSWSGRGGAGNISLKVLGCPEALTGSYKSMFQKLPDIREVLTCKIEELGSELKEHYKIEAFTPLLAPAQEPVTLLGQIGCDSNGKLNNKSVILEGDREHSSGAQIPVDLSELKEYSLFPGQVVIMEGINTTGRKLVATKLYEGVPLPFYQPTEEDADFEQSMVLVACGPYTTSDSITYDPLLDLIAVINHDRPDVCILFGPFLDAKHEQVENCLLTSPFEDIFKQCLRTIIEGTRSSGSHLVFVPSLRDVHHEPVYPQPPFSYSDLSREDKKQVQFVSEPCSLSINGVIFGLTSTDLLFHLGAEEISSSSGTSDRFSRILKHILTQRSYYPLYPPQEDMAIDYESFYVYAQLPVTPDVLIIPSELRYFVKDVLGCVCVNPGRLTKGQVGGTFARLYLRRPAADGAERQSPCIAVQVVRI

[4] = molecular target: T4, PRIM1 (human, UniProt P49642 2-420)
T4 sequence: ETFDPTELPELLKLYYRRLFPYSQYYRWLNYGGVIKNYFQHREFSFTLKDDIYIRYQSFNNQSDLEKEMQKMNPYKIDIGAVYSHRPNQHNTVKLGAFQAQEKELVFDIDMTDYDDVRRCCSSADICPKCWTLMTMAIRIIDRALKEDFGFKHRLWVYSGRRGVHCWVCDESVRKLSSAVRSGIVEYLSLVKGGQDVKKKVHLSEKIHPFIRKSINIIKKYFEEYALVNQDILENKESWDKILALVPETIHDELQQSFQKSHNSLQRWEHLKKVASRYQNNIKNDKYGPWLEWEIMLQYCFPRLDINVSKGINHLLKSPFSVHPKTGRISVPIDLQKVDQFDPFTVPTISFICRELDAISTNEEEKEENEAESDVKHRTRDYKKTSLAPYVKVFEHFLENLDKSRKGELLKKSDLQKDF

Measured: binding result

B1: TEN1 (natural protein, human)
chain: LPKPGTYYLPWEVSAGQVPDGSTLRTFGRLCLYDMIQSRVTLMAQHGSDQHQVLVCTKLVEPFHAQVGSLYIVLGELQHQQDRGSVVKARVLTCVEGMNLPLLEQAIREQRLYKQERGGSQ
binds: all assays above

— publication PMC10268231 (Nature, 2021)
